Experimental data published in paper PMC3961392.
Changes are numbered by the printed parent chain.

What was measured:
Experiment in all cases: fluorescence anisotropy
[1] = target: T1, A3F CTD (UniProt Q8IUX4); settings: RT buffer: 50 mM Tris pH 7.4, 40 mM KCl, 10 mM MgCl2, 1 mM DTT; 10 nM F-labeled DNA; 21 C
T1 sequence: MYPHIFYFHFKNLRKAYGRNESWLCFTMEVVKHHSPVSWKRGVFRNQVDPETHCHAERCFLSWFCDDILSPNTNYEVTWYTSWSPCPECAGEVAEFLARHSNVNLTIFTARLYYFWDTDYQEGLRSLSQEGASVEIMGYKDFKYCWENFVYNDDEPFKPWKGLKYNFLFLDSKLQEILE

[2] = target: T2, A3F (UniProt Q8IUX4); settings: apparent Kd; 10 mM Mg2+; RT buffer: 50 mM Tris pH 7.4, 40 mM KCl, 10 mM MgCl2, 1 mM DTT; 10 nM F-labeled DNA; 21 C
T2 sequence: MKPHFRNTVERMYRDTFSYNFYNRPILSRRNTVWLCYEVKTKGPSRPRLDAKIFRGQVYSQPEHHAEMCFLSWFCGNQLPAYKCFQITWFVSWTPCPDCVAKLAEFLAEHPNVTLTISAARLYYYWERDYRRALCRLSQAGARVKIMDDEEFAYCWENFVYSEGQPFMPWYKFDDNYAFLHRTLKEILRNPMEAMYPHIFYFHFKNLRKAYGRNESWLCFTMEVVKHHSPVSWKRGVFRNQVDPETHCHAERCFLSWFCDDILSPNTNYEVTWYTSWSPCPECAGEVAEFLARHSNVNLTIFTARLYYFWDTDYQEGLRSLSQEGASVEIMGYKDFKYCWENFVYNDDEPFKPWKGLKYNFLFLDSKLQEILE

[3] = target: T3, GST-A3F (UniProt Q8IUX4); settings: RT buffer: 50 mM Tris pH 7.4, 40 mM KCl, 10 mM MgCl2, 1 mM DTT; 10 nM F-labeled DNA; 21 C
T3 sequence: T2 sequence

[4] = target: T4, A3F NGM P191G (UniProt Q8IUX4); settings: RT buffer: 50 mM Tris pH 7.4, 40 mM KCl, 10 mM MgCl2, 1 mM DTT; 10 nM F-labeled DNA; 21 C
T4 sequence: T2 sequence with P191G

Question: “GAATATAGTTTTTAGTTCAAAGTAAGTGAAGATAATTTAGAGAGTTGTAATGTGATATATGTGTATGAAAGATATAAGATTCAAAGAGTAAAGTTGTTAATGTGTGTAGATATGTTAA [A3F - 63 (TTC) (118 nt)]” was tested. Which Kd [1] did it give?
Answer: 0.288 µM

Question: What about the Kd [2] of the same sequence?
Answer: 0.02 µM

Question: And the Kd [3]?
Answer: 0.046 µM

Question: And the Kd [4]?
Answer: 0.119 µM
